Source: PMC5967863

Target: full-length human TRPC3 (human) (UniProt Q13507)
Test: cryo-EM structure; purified TRPC3 at 5 mg/mL in 20 mM Tris 8.0, 500 mM NaCl, 1 mM EDTA, 0.1% digitonin; single-particle reconstruction with C4 symmetry, 3.3 Å

For “full-length human TRPC3 (from UniProt Q13507 1-921) (natural protein)”, the stoichiometry N was 4.
